Experimental data taken from paper PMC12412652.

What was measured:
[1] = target: T1, MBP-BAK 16-186, biotinylated (Avi tag, 6-histidine tag) (human), Q16611; test: BLI; Octet RED96; biotinylated BCL-2 family proteins (25 nM) immobilised on streptavidin biosensors, designed protein in solution; 10 mM Hepes pH 7.4, 150 mM NaCl, 3 mM EDTA, 0.05% surfactant P20, 0.5% nonfat dry milk; titrations in triplicate, 1:1 binding model
T1 chain: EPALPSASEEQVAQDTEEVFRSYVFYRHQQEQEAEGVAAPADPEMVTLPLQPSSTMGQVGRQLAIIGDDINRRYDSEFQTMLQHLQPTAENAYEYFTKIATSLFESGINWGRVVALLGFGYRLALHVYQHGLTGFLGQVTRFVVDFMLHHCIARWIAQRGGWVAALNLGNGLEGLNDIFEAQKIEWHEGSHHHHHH

[2] = target: MBP-BAX 1-166 C62S C126S, biotinylated (Avi tag, 6-histidine tag) (human), Q07812; test: as above
Chain of MBP-BAX 1-166 C62S C126S, biotinylated (Avi tag, 6-histidine tag) (human), Q07812 (Q07812 1-166 C62S/C126S): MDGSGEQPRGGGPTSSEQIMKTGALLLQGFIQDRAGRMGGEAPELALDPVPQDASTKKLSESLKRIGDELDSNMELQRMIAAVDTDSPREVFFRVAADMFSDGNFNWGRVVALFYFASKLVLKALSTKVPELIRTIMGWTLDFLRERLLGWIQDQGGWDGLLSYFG

A Kd [1] greater than 4000 nM and a Kd [2] of 464 nM were found for SESQEDIIRNIARHLAQVGDSMDRSIPPGLVNGL (domain or fragment, modifications not checked) [MBP-fused BH3 peptide from BID] in this work.
